Series [1] concerns the target T1, rPfLDH (recombinant Plasmodium falciparum lactate dehydrogenase) (Plasmodium falciparum, UniProt Q76NM3 1-316). The series can be described thus: paper capture, Malstat enzyme activity colorimetry; Zone 1, apparent Kd (fit 23.643 ± 10.806); PBS pH 7.4 (10 mM Na2HPO4, 1.8 mM KH2PO4 [printed KH2HPO4], 2.7 mM KCl, 137 mM NaCl), room temperature, 30 min; pL1: 20 mM Tris, 50 mM NaCl, 5 mM KCl, 5 mM MgCl2, 0.01% Tween 20, pH 8.0. To be noted: protein: recombinant; chain copies: 4; label: 5' biotin.

In series [2] the target is T1, rPfLDH (recombinant Plasmodium …). The series can be described thus: paper capture, Malstat enzyme activity colorimetry; Zone 3, apparent Kd; PBS pH 7.4 (10 mM Na2HPO4, 1.8 mM KH2PO4 [printed KH2HPO4], 2.7 mM KCl, 137 mM NaCl), room temperature, 30 min; pL1: 20 mM Tris, 50 mM NaCl, 5 mM KCl, 5 mM MgCl2, 0.01% Tween 20, pH 8.0. To be noted: protein: recombinant; chain copies: 4; label: 5' biotin.

Drawing on article PMC9172074, “A microfluidic paper analytical device using capture aptamers for the detection of PfLDH in blood matrices”, this text covers Kd for 1 molecule.

B1: rLDH7 (ssDNA)
DNA: GCCTGTTGTGAGCCTCCTAACCCAGAATAGGGACTGCTCGGGATTGCGGATGAGTCTGGGTGGGACATGGCATGCTTATTCTTGTCTCCC
Take B1: the results for the Kd in series [1] and in series [2] were 24 ± 11 nM and 11.4 ± 5 nM, respectively.
